In assay [1] the target is T1, mouse IL-4Rα on cells (HT-2 cells, purified mouse B cells) (mouse, UniProt P16382 26-810).
T1 sequence (looked up): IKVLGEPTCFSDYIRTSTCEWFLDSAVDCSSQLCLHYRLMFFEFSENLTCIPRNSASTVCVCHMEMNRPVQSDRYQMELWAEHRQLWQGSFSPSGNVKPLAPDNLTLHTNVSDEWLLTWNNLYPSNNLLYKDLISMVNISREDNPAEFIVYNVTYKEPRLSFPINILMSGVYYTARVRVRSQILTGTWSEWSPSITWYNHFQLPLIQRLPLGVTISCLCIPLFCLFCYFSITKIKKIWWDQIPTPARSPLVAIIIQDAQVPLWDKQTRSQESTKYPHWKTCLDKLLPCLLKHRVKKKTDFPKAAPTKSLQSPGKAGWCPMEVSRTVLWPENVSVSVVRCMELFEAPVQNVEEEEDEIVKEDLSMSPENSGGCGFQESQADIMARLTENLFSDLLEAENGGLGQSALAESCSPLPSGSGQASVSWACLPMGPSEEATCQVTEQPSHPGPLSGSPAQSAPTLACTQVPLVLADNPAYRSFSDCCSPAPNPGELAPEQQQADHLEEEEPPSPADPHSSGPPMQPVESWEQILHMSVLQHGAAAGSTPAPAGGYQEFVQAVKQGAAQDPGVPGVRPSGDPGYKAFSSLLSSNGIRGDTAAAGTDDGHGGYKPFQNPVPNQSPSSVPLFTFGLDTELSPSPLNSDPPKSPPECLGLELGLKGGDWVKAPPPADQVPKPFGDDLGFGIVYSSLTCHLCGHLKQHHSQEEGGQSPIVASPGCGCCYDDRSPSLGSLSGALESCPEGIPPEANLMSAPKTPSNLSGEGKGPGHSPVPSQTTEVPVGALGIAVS
In words: cell-based or functional assay.

The target in assay [2] is T2, mouse IL-4Rα (SPR target of Example 2) (mouse, UniProt P16382 26-233, limits assumed).
T2 construct: also called immobilized target IL-4Rα
T2 sequence (looked up): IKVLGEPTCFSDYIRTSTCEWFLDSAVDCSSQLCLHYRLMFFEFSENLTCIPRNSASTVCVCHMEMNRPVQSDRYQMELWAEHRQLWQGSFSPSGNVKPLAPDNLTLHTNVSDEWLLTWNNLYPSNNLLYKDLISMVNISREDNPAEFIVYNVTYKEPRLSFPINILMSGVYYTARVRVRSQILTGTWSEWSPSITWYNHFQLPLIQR
Briefly: SPR, mAb (0-20 µg/mL) over immobilised target; immobilized IL-4Rα target; IL-4Rα mAb in solution. (In general: In SPR one partner is held on a chip, and binding of the other changes the refractive index at the surface.)

In assay [3] the target is T3, mouse IL-5 (mouse, UniProt P04401 21-133).
T3 construct: also called mIL-5; recombinant mouse IL-5 (R&D Systems)
T3 sequence (looked up): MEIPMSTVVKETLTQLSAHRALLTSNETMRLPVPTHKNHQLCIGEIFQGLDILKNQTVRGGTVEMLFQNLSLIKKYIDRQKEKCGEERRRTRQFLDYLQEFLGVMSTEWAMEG
Briefly: SPR sandwich: IL-4Rα-Fc coated, anti-IL-4Rα Ab as 1st injection, IL-5 as 2nd injection. How it is done:
(§1) The experiment was also performed in reverse order and confirmed the bispecific nature of the molecule as depicted in FIG. 13B.

For assay [4], the target named is T4, recombinant mouse IL-4Rα-Fc (mouse, UniProt P16382 26-233).
T4 construct: Bought reagent; also called coated IL-4Rα; injected IL-4Rα; not shown: Fc part
T4 sequence (looked up): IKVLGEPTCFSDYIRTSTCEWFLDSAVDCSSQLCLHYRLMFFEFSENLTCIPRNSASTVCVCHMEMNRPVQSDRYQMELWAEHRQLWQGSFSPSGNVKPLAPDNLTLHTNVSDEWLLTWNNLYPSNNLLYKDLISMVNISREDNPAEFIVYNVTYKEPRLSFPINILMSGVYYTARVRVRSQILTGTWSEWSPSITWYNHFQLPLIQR
In words: SPR sandwich: IL-5 coated, bispecific as 1st injection, IL-4Rα-Fc as 2nd injection. How it is done: as §1

Assay [5] concerns the target T3, mouse IL-5. Briefly: SPR, IL-5 coated, antibody as 1st injection. As to the method:
as §1

Assay [6] has as its target T3, mouse IL-5. Briefly: cell-based or functional assay.
Assay [7] concerns the target T4, recombinant mouse IL-4Rα-Fc. In words: SPR, IL-4Rα-Fc coated, antibody as 1st injection. How it is done:
as §1

Assay [8] concerns the target T3, mouse IL-5. Briefly: cell-based or functional assay. The source holds these as a separate data set.
Assay [9] deals with T3, mouse IL-5. Briefly: SPR, mAb (0-20 µg/mL) over immobilised target; immobilized IL-5 target; IL-5 mAb in solution.

B1: m4RMP36B7 IL-4Rα monospecific antibody (mouse IgG2a) (antibody, V domains shown)
VH: EVQLVESGGGLVQPGGSLRVSCAASGFTFSSYYMAWVRQAPGKGLEWVSHIHAGGSLTQYADSVKGRFTISRDNAKSTLYLQMNSLKPEDTALYYCVRIYGDATSYDYWGQGTQVSVSS
VL: HSAVTQPPSVSGSPGKTVTISCAGTSSDIGGYNYVSWYQQFPGTAPKLLIYEVNKRASGIPDRFSGSKSGNTASLSISGLQSEDEADYYCASYRSNNNIVFGGGTHLTVL
notes: also called IL-4Rα mAb; IL-4Rα monospecific Ab
One may read the Kd as the constant that tells how readily two partners part at equilibrium. A lower Kd goes with a tighter complex. B1: the “EC50, inhibition of mouse IL-4-induced proliferation of HT-2 cells” value in [1] is 0.2 nM. In assay [2], the Kd is 0.08 nM. Further, in the assay with mouse IL-5 [3], the binding result is “no binding”.

B2: IL-4Rα/IL-5 bispecific antibody (knob-into-hole, mouse IgG2a; 4RMP36B7 arm and 5MP95G7 arm) (bispecific antibody, V domains shown)
VH 1: EVQLVESGGGLVQPGGSLRVSCAASGFTFSSYYMAWVRQAPGKGLEWVSHIHAGGSLTQYADSVKGRFTISRDNAKSTLYLQMNSLKPEDTALYYCVRIYGDATSYDYWGQGTQVSVSS
VL 1: HSAVTQPPSVSGSPGKTVTISCAGTSSDIGGYNYVSWYQQFPGTAPKLLIYEVNKRASGIPDRFSGSKSGNTASLSISGLQSEDEADYYCASYRSNNNIVFGGGTHLTVL
VH 2: ELQVVESGGGLVQPGGSLRLSCAASGFTFSSYGMSWVRQAPGKGLEWVSTISRGGDSTSYADSVKGRFTISKDNAKNTLYLQMNSLEPEDTAVYYCANLGRLGFGRGQGTQVTVSS
VL 2: SYELTQPPSVSGSPGKTLTISCAGTSSDIGDWNYVSWFQQLPGTAPKLLISEVNKRASGIPDRFSGSKSGNTASLSISGLQSEDEADYYCTSYRSGNNWVFGGGTHLTVL
notes: Murine Fc: the 4RMP36B7 heavy chain carries T366S, L368A and Y407V in CH3, the 5MP95G7 heavy chain carries T366W; also called IL-4Rα/IL-5 bispecific Ab; bispecific Ab
With B2, the binding result (in assay [4]; with mouse IL-5 [5]) was “binds” each time.

B3: m5MP95G7 IL-5 monospecific antibody (mouse IgG2a) (antibody, V domains shown)
VH: ELQVVESGGGLVQPGGSLRLSCAASGFTFSSYGMSWVRQAPGKGLEWVSTISRGGDSTSYADSVKGRFTISKDNAKNTLYLQMNSLEPEDTAVYYCANLGRLGFGRGQGTQVTVSS
VL: SYELTQPPSVSGSPGKTLTISCAGTSSDIGDWNYVSWFQQLPGTAPKLLISEVNKRASGIPDRFSGSKSGNTASLSISGLQSEDEADYYCTSYRSGNNWVFGGGTHLTVL
notes: also called IL-5 mAb; IL-5 monospecific Ab
On to B3, for which, in the assay with mouse IL-5 [6], the “EC50 (nM), inhibition of mIL-5-induced (0.25 ng/mL) proliferation of TF-1 cells” value is 1.75 nM. Further, the binding result in assay [7] is listed as “no binding”. Besides, the “EC50, inhibition of mouse IL-5-induced proliferation of TF-1 cells” value in the assay with mouse IL-5 [8] worked out at 0.6 nM. Also, in the assay with mouse IL-5 [9], the affinity, expressed as Kd, was 0.002 nM.
